Data from US20030170730A1, “Assay method, peptides and reagent kits for testing mrp-specific inhibitors” (priority 2000, published 2003).

Assays:
[1] = target: MRP1 variants (Homo sapiens, UniProt P33527); experiment: Vanadate-dependent nucleotide trapping by MRP1 variants in Sf9 membranes; conditions: L0 peptide co-expressed with ΔMRP1
[2] = target: T1, ΔMRP1 (Homo sapiens, UniProt P33527); experiment: Restoration of ΔMRP1 transport activity by L0 peptides (vesicular LTC4 / NEM-GS uptake, Sf9 membranes); assay type: biochemical
T1 construct: An N-terminally truncated MRP1 (amino acids 281-1531); made in house; host or cells: baculovirus-infected Sf9 cells, membrane vesicles
T1 sequence (P33527 281-1531, stated change not applied): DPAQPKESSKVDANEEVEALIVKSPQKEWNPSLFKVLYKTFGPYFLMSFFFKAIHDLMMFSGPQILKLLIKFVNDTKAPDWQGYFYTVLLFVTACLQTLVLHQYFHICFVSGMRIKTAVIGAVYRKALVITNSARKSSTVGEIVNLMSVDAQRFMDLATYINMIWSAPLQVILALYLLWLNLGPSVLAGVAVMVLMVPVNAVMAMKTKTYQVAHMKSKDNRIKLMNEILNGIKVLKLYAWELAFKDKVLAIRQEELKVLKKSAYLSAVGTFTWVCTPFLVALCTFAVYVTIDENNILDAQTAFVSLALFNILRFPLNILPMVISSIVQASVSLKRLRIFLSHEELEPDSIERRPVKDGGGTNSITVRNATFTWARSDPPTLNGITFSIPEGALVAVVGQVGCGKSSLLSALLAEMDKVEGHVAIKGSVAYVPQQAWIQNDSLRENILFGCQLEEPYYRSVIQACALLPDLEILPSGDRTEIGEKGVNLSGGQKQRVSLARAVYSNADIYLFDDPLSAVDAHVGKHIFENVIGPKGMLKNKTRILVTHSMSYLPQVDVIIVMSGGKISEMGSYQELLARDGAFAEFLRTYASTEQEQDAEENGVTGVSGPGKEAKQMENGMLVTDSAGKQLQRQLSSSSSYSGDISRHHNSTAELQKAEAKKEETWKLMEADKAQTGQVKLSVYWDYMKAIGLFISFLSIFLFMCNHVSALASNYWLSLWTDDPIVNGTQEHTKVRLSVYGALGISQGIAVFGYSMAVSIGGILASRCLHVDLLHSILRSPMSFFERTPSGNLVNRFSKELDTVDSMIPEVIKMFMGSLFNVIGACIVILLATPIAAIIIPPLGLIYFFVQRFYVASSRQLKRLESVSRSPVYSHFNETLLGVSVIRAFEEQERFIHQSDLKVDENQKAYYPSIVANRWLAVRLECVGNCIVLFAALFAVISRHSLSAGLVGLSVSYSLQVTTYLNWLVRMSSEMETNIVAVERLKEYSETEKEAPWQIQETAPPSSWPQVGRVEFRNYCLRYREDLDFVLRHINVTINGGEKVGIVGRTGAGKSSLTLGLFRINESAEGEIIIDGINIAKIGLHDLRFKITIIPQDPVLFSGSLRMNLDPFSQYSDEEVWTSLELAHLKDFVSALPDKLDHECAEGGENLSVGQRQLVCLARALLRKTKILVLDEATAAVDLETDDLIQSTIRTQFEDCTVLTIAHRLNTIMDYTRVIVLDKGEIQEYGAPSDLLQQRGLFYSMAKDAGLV
Experimental: The obtained pCLTRX-L0 vector was cloned to E. coli BL21 (DE3) cells, which in turn were grown in TYBG antibiotic broth (10 g tryptone, 10 g yeast extract, 4 g glucose, pH 7.2, 100 μg/ml ampicillin, 25 μg/ml kanamycine) at 37° C. When OD(600) exceeded 1.1 cells were pelleted by centrifugation, suspended in M9 medium, the incubated at 28° C. for 30 min. Afterwards, expression was induced by IPTG for 2 hours. When the induction was finished, cells were pelleted by centrifugation and the pellet was washed with 20% sacharose, then suspended in a solution comprising 20% agarose, 10 mM Tris and 0.1 μg/ml lysosyme (pH 7.2) and incubated for 30 min at 4° C. then sonicated. The lysed cells were pelleted by centrifugation (20000 g, 20 min). The so obtained lysate was used in the further experiments, for studying the restoration of the transport activity.
In order to correctly determine the transport function of the different MRP1 proteins, we estimated the relative amount of transport-competent inside-out vesicles in the Sf9 membrane preparations [Bakos É. et al, (1998), see above], and corrected the transport rates according to the relative MRP1 expression levels, as determined by immunoblotting.

[3] = test system: MDCKII-ΔMRP1 cells; experiment: Immunolocalization of L0 co-expressed with ΔMRP1 in MDCKII monolayers (rescue to plasma membrane); assay type: cell-based; conditions: pool of puromycin resistant MDCKII-ΔMRP1 cells
Source text: L0 was detected by indirect immunofluorescence with mAb R1 (green color, light signal in the lateral membrane). […] The arrow head indicates the position where the section was made. Nucleic acids were counterstained with propidium iodide (red signal).
For expression of MRP1 variants in MDCKII cells, the L0MDR1 chimera, ΔMRP1, and MRP1Δ(223-232) were inserted as blunt-end fragments into the retroviral vector pCMV-neo as described [Bakos É et al, (1998), see above]. For co-expression experiments the L0 fragment was cloned into the pBabe-Puro-CMV vector (kindly provided by Dr. J. Wijnholds, The Netherlands Cancer Institute, Amsterdam, The Netherlands). This vector was generated by cloning the blunt-ended HindIII fragment from pCMV-neo (containing the CMV early promoter) into the blunt-ended BamHI site of the pBabe-puro vector [Morgenstern J. P., and Land, H. (1990) Nucleic Acids Res. 18, 3587-3596]. Cells were retrovirally-transduced as described before [Evers, R. Kool, M., van Deemter, L., Janssen, H., Calafat, J., Oomen, L. C., Paulusma, C. C., Oude Elferink R. P., Baas, F., Schinkel, A. H., and Borst P. (1998) J. Clin Invest. 101, 1310-1319]. MDCKII cells stably transduced with the pBabe-Puro or pCMV-neo vector were selected for 4-6 days in medium containing puromycin (3 μg/ml) or for 7 days in medium containing G-418 (800 μg/ml), respectively. […]

restoration of nucleotide trapping of ΔMRP1 [1]: the full activity was restored
uptake of LTC4 on co-expression with ΔMRP1 ([2]; at 50 nM LTC4, Sf9 vesicles): about 90 % of MRP1
uptake of NEM-GS on co-expression with ΔMRP1 ([2]; at 50 μM NEM-GS, Sf9 vesicles): about 40 % of MRP1
B1: L0: amino acids 204-281, representing the N-terminal linker region of MRP1, expressed as a separate peptide (protein, UniProt P33527 204-281, looked up, fragment)
chain: DPNPCPESSASFLSRITFWWITGLIVRGYRQPLEGSDLWSLNKEDTSEQVVPVLVKNWKKECAKTRKQPVKVVYSSKD
modifications: L0 linker region
notes: amino acids 204-281, representing the N-terminal linker region of MRP1, expressed as a separate peptide
localization of L0 (mAb R1 staining) [3]: clear lateral plasma membrane staining
